Paper PMC10820826 (The Journal of Biological Chemistry, 2023)
Read-outs that look alike come from different tables or passages of the source.

T1: Mint1 PTB domain (residues 448-623) (human, UniProt Q02410 448-623)
T1 construct: human Mint1 PTB domain, residues 448-623; pGEX6P-2; source: E. coli Rosetta BL21 (DE3), purified (glutathione-Sepharose, Prescission protease, gel filtration)
T1 sequence (looked up): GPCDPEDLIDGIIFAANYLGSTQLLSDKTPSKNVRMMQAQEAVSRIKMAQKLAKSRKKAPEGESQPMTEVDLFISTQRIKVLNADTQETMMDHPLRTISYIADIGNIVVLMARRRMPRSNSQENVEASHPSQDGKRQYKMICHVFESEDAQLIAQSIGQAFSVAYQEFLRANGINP


Columns and labels:
Conditions in all cases: both partners purified
[1] = target: T2, Munc18-1-His (rat, UniProt P61765 1-594)
T2 construct: Munc18-1 (STXBP1); also called Munc18a; STXBP1; source: E. coli Rosetta BL21 (DE3), purified to homogeneity as described by Hu et al

[2] = target: T2, Munc18-1-His; remark: listed apart in the source
[3] = target: T3, Munc18-1 + Sx1a (rat, UniProt P61765 1-594; P32851 1-261); assay: pull-down; GST-Mint1 MID as bait, Munc18-1 in the presence of Sx1a; Coomassie-stained gel
T3 construct: Munc18-1 (STXBP1), as m1; also called Munc18-1 in the presence of Sx1a; source: mixed from the purified E. coli proteins m1 and m32

[4] = target: T2, Munc18-1-His; remark: listed apart in the source
[5] = target: T3, Munc18-1 + Sx1a
[6] = target: T4, Mint1 PTB + APP (750-769) (human, UniProt Q02410 448-623); assay: ITC; as a5, competition experiment with the other peptide (APP 750-769 or TJAP1 9-22) present with Mint1 PTB in the cell
T4 construct: human Mint1 PTB domain, residues 448-623, as m35; human amyloid precursor protein residues 750-769, as m36; source: mixed from purified m35 and the synthetic peptide m36

[7] = target: T1, Mint1 PTB domain (residues 448-623); assay: ITC; 25 °C, 50 mM Hepes, 200 mM NaCl, 0.5 mM TCEP, 5% glycerol; 1 mM peptide titrated into 50 μM Mint1 PTB domain; 1:1 binding model
[8] = target: T5, Mint1 PTB + TJAP1 (9-22) (human, UniProt Q02410 448-623); assay: ITC; as a5, competition experiment with the other peptide (APP 750-769 or TJAP1 9-22) present with Mint1 PTB in the cell
T5 construct: human Mint1 PTB domain, residues 448-623, as m35; human tight junction-associated protein 1 residues 9-22, as m37; source: mixed from purified m35 and the synthetic peptide m37

T2 sequence (P61765 whole entry): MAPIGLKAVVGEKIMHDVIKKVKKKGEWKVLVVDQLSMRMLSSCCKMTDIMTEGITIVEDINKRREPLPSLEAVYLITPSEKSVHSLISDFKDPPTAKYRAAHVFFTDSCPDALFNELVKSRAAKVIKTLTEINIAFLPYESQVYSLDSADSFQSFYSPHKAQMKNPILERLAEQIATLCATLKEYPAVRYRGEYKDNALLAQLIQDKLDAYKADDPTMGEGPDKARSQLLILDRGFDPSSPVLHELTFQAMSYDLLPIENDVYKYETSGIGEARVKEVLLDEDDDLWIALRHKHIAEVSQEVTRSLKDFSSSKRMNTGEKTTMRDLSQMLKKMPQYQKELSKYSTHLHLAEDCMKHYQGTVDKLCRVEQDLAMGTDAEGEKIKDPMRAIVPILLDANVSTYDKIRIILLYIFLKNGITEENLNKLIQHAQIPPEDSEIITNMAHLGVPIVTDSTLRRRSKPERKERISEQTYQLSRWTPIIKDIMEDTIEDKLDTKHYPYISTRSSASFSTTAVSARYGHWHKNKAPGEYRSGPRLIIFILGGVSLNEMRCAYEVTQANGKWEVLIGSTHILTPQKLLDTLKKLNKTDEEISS
T3 sequence (P61765 whole entry, chain 1 of 2): as the sequence (P61765 whole entry) above
T3 sequence (P32851 1-261, chain 2 of 2): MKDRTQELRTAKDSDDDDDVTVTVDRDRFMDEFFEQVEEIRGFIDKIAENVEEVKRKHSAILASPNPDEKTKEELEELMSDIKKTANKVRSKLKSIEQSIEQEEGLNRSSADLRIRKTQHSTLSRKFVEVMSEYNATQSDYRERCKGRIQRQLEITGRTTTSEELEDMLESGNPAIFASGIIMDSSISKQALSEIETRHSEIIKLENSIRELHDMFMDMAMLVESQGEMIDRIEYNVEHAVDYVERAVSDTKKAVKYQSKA

Row | Kd [1] | dH [1] | stoichiometry N [1] | Binder | further results
1 | 4 µM | -1.29 kcal/mol | 1.2 | EEDIDQIVAEVKQSMS (source: synthetic peptide, bought: Genscript) [Mint1_6 peptide (267-282)] | –
2 | 5.6 µM | -3.48 kcal/mol | 1.3 | EQEEDIDQIVAEVKQSMS (source: synthetic peptide, bought: Genscript) [Mint1_5 peptide (265-282)] | –
3 | 19.1 µM | -1.78 kcal/mol | 1 | MDSYEQEEDIDQIVAEVKQS (source: synthetic peptide, bought: Genscript) [Mint1_7 peptide (261-280)] | –

Second part, the binder before the results:

Row | Binder | Kd [1] | dH [1] | stoichiometry N [1] | further results
4 | SYEQEEDIDQIVAEVKQSMS (source: synthetic peptide, bought: Genscript) [Mint1_4 peptide (263-282)] | 12.9 µM | -2.3 kcal/mol | 1.3 | –
5 | GST-Mint1 (226-314) (MID) (domain or fragment, human, UniProt Q02410 226-314, looked up, human Mint1 (X11, APBA1) residues 226-314, the MID by the methods; it could also be 222-314; also called GST-Mint1 MID; source: E. coli Rosetta BL21 (DE3), purified (glutathione-Sepharose, Superdex 75)) YRQEALGARLHHYDERSDGESDSPEKEAEFAPYPRMDSYEQEEDIDQIVAEVKQSMSSQSLDKAAEDMPEAEQDLERPPTPAGGRPDSP | – | – | – | binding result [2]: binds; binding result [3]: binds
6 | QEEDIDQIVAEVKQSMS (source: synthetic peptide, bought: Genscript) [Mint1_1c peptide (266-282)] | 23.1 µM | -1.2 kcal/mol | 1 | –
7 | PYPRMDEEEQEEDIDQIVAEVKQEMEEQEL (human Mint1 residues 257-286 with phosphomimetic Glu; source: synthetic peptide, bought: Genscript) [Mint1_3 peptide (257-286 phosphomimic)] | 14 µM | -6.5 kcal/mol | 1.1 | –
8 | PYPRMDSYEQEEDIDQIVAEVKQSMSSQSL (human Mint1 residues 257-286; source: synthetic peptide, bought: Genscript) [Mint1_2 peptide (257-286)] | 26 µM | -4.21 kcal/mol | 1.3 | –
9 | GST-Mint1 MID (residues 222-314) (domain or fragment, pGEX4T-2, codon optimised; The methods call 226-314 the MID; also called GST-Mint1 (222-314); source: E. coli Rosetta BL21 (DE3), purified (glutathione-Sepharose, gel filtration)) EAAAYRQEALGARLHHYDERSDGESDSPEKEAEFAPYPRMDSYEQEEDIDQIVAEVKQSMSSQSLDKAAEDMPEAEQDLERPPTPAGGRPDSP | – | – | – | binding result [2]: binds
10 | MDSYEQEEDIDQIVAEVKQSMS (also called Mint1_1; Mint1 AHM peptide; source: synthetic peptide, bought: Genscript) [Mint1 (261-282) synthetic peptide] | – | -8.8 kcal/mol | 0.8 | dH [4]: -7.9 kcal/mol; stoichiometry N [4]: 1; dH [5]: -8.9 kcal/mol; stoichiometry N [5]: 1
11 | KPYRKAPPEHRELR (human tight junction-associated protein 1 residues 9-22; also called TJAP1 peptide; PILT; source: synthetic peptide (solid phase synthesis in-house, reverse-phase HPLC)) [TJAP1 (9-22) peptide] | – | – | – | Kd [6]: 29.4 µM; dH [6]: -7.1 kcal/mol; stoichiometry N [6]: 1; Kd [7]: 20.9 µM; dH [7]: -8.9 kcal/mol; stoichiometry N [7]: 1
12 | SKMQQNGYENPTYKFFEQMQ (human amyloid precursor protein residues 750-769; also called APP NPxY peptide; source: synthetic peptide (solid phase synthesis in-house, reverse-phase HPLC)) [APP (750-769) peptide] | – | – | – | Kd [8]: 0.58 µM; dH [8]: -11.8 kcal/mol; stoichiometry N [8]: 1; Kd [7]: 0.31 µM; dH [7]: -15.6 kcal/mol; stoichiometry N [7]: 1
